Data on 61 substances can be found in US10702592B2, “Peptides and combination of peptides for use in immunotherapy against NHL and other cancers” (Immatics Biotechnologies GmbH, priority 2016, dated 2020).

In the assay the target is HLA-A*02:01 (Homo sapiens, UniProt P04439, D140Y/D185E/D98H/E176V/E277Q/G131W/G231S/I119V/I121R/I166T/I218V/L300P/L318F/N151K/N90K/P208A/P217A/Q86G/Q94H/R138H/R169H/T345S). Briefly: MHC binding assay (UV-ligand exchange, beta2m ELISA). The conditions noted are these: binding to HLA-A*02:01, UV-ligand exchange. The method, boiled down:
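Exchange yield, UV-ligand exchange: 100-fold diluted samples on streptavidin plates, 1 h at 37 °C; HRP anti-β2m 1 h at 37 °C; TMB read at 450 nm.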
On the technique in general: ELISA stands for enzyme-linked immunosorbent assay.
On to “219 (ALLELENSV; listed as Homo sapiens) [compound 219]”, for which the “Peptide exchange (MHC class I binding score, peptide exchange yield)” value (from here on “Peptide exchange”) was ““++” (≥20% = ++)”.

For the substance “220 (FLAEAPTAL; listed as Homo sapiens) [compound 220]”, the “Peptide exchange” value is listed as ““++” (≥20% = ++)”.

For the substance “221 (FLAPDNSLLLA; listed as Homo sapiens) [compound 221]”, the “Peptide exchange” value is reported as ““++++” (≥75% = ++++)”.

With “222 (FLIETGTLL; listed as Homo sapiens) [compound 222]”, the “Peptide exchange” value is ““+++” (≥50 = +++)”.

Regarding “223 (FLQDIPDGLFL; listed as Homo sapiens) [compound 223]”, the “Peptide exchange” value is on record as ““++” (≥20% = ++)”.

“224 (FLSPLLPLL; listed as Homo sapiens) [compound 224]”: the “Peptide exchange” value is ““++” (≥20% = ++)”.

Consider “226 (GVIDPVPEV; listed as Homo sapiens) [compound 226]”, for which the “Peptide exchange” value is ““++” (≥20% = ++)”.

As for “227 (IIAEGIPEA; listed as Homo sapiens) [compound 227]”, the “Peptide exchange” value is ““++” (≥20% = ++)”.

“228 (IIAEYLSYV; listed as Homo sapiens) [compound 228]”: the “Peptide exchange” value is reported as ““++” (≥20% = ++)”.

For “229 (ILSPWGAEV; listed as Homo sapiens) [compound 229]”, the “Peptide exchange” value is ““++++” (≥75% = ++++)”.

“230 (IMDDDSYGV; listed as Homo sapiens) [compound 230]”: the “Peptide exchange” value is ““++” (≥20% = ++)”.

On to “231 (IVMGAIPSV; listed as Homo sapiens) [compound 231]”, for which the “Peptide exchange” value is ““+++” (≥50 = +++)”.

With “232 (KVMEGTVAA; listed as Homo sapiens) [compound 232]”, the “Peptide exchange” value was ““++” (≥20% = ++)”.

For the substance “233 (MLEVHIPSV; listed as Homo sapiens) [compound 233]”, the “Peptide exchange” value is on record as ““+++” (≥50 = +++)”.

For “234 (NLQRTVVTV; listed as Homo sapiens) [compound 234]”, the “Peptide exchange” value was ““++” (≥20% = ++)”.

On to “235 (SLDVYELFL; listed as Homo sapiens) [compound 235]”, for which the “Peptide exchange” value is ““+++” (≥50 = +++)”.

“236 (SLFDGFFLTA; listed as Homo sapiens) [compound 236]”: the “Peptide exchange” value is on record as ““++++” (≥75% = ++++)”.

Take “237 (YLDRLIPQA; listed as Homo sapiens) [compound 237]”: the “Peptide exchange” value is on record as ““+++” (≥50 = +++)”.

Regarding “238 (YQYGAVVTL; listed as Homo sapiens) [compound 238]”, the “Peptide exchange” value is given as ““+++” (≥50 = +++)”.

“239 (VLIDDTVLL; listed as Homo sapiens) [compound 239]”: the “Peptide exchange” value is ““+++” (≥50 = +++)”.

“240 (ALVPTPALFYL; listed as Homo sapiens) [compound 240]”: the “Peptide exchange” value is on record as ““+++” (≥50 = +++)”.

Regarding “241 (FIPDFIPAV; listed as Homo sapiens) [compound 241]”, the “Peptide exchange” value is reported as ““++” (≥20% = ++)”.

Take “242 (GILDFZVFL; listed as Homo sapiens) [compound 242]”: the “Peptide exchange” value is ““++++” (≥75% = ++++)”.

For the substance “243 (GLPDLDIYL; listed as Homo sapiens) [compound 243]”, the “Peptide exchange” value is on record as ““++++” (≥75% = ++++)”.

Consider “244 (ILEPFLPAV; listed as Homo sapiens) [compound 244]”, for which the “Peptide exchange” value is ““+++” (≥50 = +++)”.

In the case of “245 (KLIQLPVVYV; listed as Homo sapiens) [compound 245]”, the “Peptide exchange” value is ““+++” (≥50 = +++)”.

As to “246 (KLPVPLESV; listed as Homo sapiens) [compound 246]”, the “Peptide exchange” value is reported as ““+++” (≥50 = +++)”.

As for “247 (KVLEMETTV; listed as Homo sapiens) [compound 247]”, the “Peptide exchange” value was ““+++” (≥50 = +++)”.

“248 (NLLEQFILL; listed as Homo sapiens) [compound 248]”: the “Peptide exchange” value is ““+++” (≥50 = +++)”.

For “249 (VLLESLVEI; listed as Homo sapiens) [compound 249]”, the “Peptide exchange” value was ““++++” (≥75% = ++++)”.

Regarding “250 (VLTNVGAAL; listed as Homo sapiens) [compound 250]”, the “Peptide exchange” value is ““+++” (≥50 = +++)”.

“251 (VLYELFTYI; listed as Homo sapiens) [compound 251]”: the “Peptide exchange” value is given as ““+++” (≥50 = +++)”.

“252 (YLGDLIMAL; listed as Homo sapiens) [compound 252]”: the “Peptide exchange” value was ““+++” (≥50 = +++)”.

As to “255 (GMWNPNAPVFL; listed as Homo sapiens) [compound 255]”, the “Peptide exchange” value is reported as ““++++” (≥75% = ++++)”.

On to “257 (FLQEWEVYA; listed as Homo sapiens) [compound 257]”, for which the “Peptide exchange” value is ““++++” (≥75% = ++++)”.

On to “259 (TVLDGLEFKV; listed as Homo sapiens) [compound 259]”, for which the “Peptide exchange” value is recorded as ““++++” (≥75% = ++++)”.

As for “263 (GLMDNEIKV; listed as Homo sapiens) [compound 263]”, the “Peptide exchange” value was ““+++” (≥50 = +++)”.

“264 (ILTGTPPGV; listed as Homo sapiens) [compound 264]”: the “Peptide exchange” value is on record as ““+++” (≥50 = +++)”.

For the substance “265 (ILWHFVASL; listed as Homo sapiens) [compound 265]”, the “Peptide exchange” value was ““++++” (≥75% = ++++)”.

Take “266 (QLTEMLPSI; listed as Homo sapiens) [compound 266]”: the “Peptide exchange” value is ““++++” (≥75% = ++++)”.

As to “267 (SLLETGSDLLL; listed as Homo sapiens) [compound 267]”, the “Peptide exchange” value is recorded as ““+++” (≥50 = +++)”.

As to “268 (VLFPLPTPL; listed as Homo sapiens) [compound 268]”, the “Peptide exchange” value was ““++++” (≥75% = ++++)”.

As for “269 (VLQNVAFSV; listed as Homo sapiens) [compound 269]”, the “Peptide exchange” value is recorded as ““++++” (≥75% = ++++)”.

For the substance “270 (VVVDSDSLAFV; listed as Homo sapiens) [compound 270]”, the “Peptide exchange” value is ““++++” (≥75% = ++++)”.

“271 (YLLDQPVLEQRL; listed as Homo sapiens) [compound 271]”: the “Peptide exchange” value is listed as ““++++” (≥75% = ++++)”.

Turning to “272 (KLDHTLSQI; listed as Homo sapiens) [compound 272]”, the “Peptide exchange” value is recorded as ““++++” (≥75% = ++++)”.

Regarding “273 (AILLPQPPK; listed as Homo sapiens) [compound 273]”, the “Peptide exchange” value is on record as ““++” (≥20% = ++)”.

In the case of “274 (KLLNLISKL; listed as Homo sapiens) [compound 274]”, the “Peptide exchange” value was ““++++” (≥75% = ++++)”.

Turning to “275 (KLMDLEDCAL; listed as Homo sapiens) [compound 275]”, the “Peptide exchange” value is on record as ““++++” (≥75% = ++++)”.

“276 (NMISYVVHL; listed as Homo sapiens) [compound 276]”: the “Peptide exchange” value is recorded as ““++” (≥20% = ++)”.

With “277 (FLIDLNSTHGTFL; listed as Homo sapiens) [compound 277]”, the “Peptide exchange” value is on record as ““+++” (≥50 = +++)”.

Turning to “278 (FLLFINHRL; listed as Homo sapiens) [compound 278]”, the “Peptide exchange” value is reported as ““+++” (≥50 = +++)”.

Consider “279 (NLAGENILNPL; listed as Homo sapiens) [compound 279]”, for which the “Peptide exchange” value is ““+++” (≥50 = +++)”.

Consider “280 (SLLNHLPYL; listed as Homo sapiens) [compound 280]”, for which the “Peptide exchange” value is ““++++” (≥75% = ++++)”.

Regarding “281 (TLQTVPLTTV; listed as Homo sapiens) [compound 281]”, the “Peptide exchange” value is reported as ““++++” (≥75% = ++++)”.

Take “282 (YLLEQGAQV; listed as Homo sapiens) [compound 282]”: the “Peptide exchange” value is given as ““++++” (≥75% = ++++)”.

As to “283 (ALMPVTPQA; listed as Homo sapiens) [compound 283]”, the “Peptide exchange” value is ““+++” (≥50 = +++)”.

In the case of “284 (KLQEQIHRV; listed as Homo sapiens) [compound 284]”, the “Peptide exchange” value was ““+++” (≥50 = +++)”.

Consider “285 (SITAVTPLL; listed as Homo sapiens) [compound 285]”, for which the “Peptide exchange” value is ““+++” (≥50 = +++)”.

As to “286 (HLTEDTPKV; listed as Homo sapiens) [compound 286]”, the “Peptide exchange” value is given as ““+++” (≥50 = +++)”.

Take “287 (ILMGHSLYM; listed as Homo sapiens) [compound 287]”: the “Peptide exchange” value is listed as ““++++” (≥75% = ++++)”.
